Assay results: article PMC5874916 (2018)

Key:
[1] = molecular target: T1, 6xHis-tagged WT RTp51/p66 heterodimer purified from E. coli (HIV-1, UniProt P04585 588-1027); assay: BLI
[2] = molecular target: T1, 6xHis-tagged WT RTp51/p66 heterodimer …; assay: BLI; remark: listed apart in the source

B1: purified recombinant eEF1A1 (OriGene), biotinylated (natural protein)
chain: MGKEKTHINIVVIGHVDSGKSTTTGHLIYKCGGIDKRTIEKFEKEAAEMGKGSFKYAWVLDKLKAERERGITIDISLWKFETSKYYVTIIDAPGHRDFIKNMITGTSQADCAVLIVAAGVGEFEAGISKNGQTREHALLAYTLGVKQLIVGVNKMDSTEPPYSQKRYEEIVKEVSTYIKKIGYNPDTVAFVPISGWNGDNMLEPSANMPWFKGWKVTRKDGNASGTTLLEALDCILPPTRPTDKPLRLPLQDVYKIGGIGTVPVGRVETGVLKPGMVVTFAPVNVTTEVKSVEMHHEALSEALPGDNVGFNVKNVSVKDVRRGNVAGDSKNDPPMEAAGFTAQVIILNHPGQISAGYAPVLDCHTAHIACKFAELKEKIDRRSGKKLEDGPKFLKSGDAAIVDMVPGKPMCVESFSDYPPLGRFAVRDMRQTVAVGVIKAVDKKAAGAGKVTKSAQKAQKAK
modifications: biotin (EZ-Link-sulfo-NHS-biotin)
Kd [1]: 3.48 nM
koff [2]: 0.000475 s⁻¹
